We go through 4 molecules from US20220396635A1 (UNIVERSIT T STUTTGART, published 2022).

In general, EC50 refers to the concentration at which the effect is half-maximal. High values mean weaker potency, low ones greater potency.

The labels stand for the following.
B1: scDb/Fab-Fc (2-1)+1, trivalent bispecific anti-FAPxanti-CD3 (bispecific antibody, human IgG1, kappa)
chain: QVQLVQSGAEVKKPGSSVKVSCKASGGTFSGYTMNWVRQAPGQGLEWMGLINPYKGVSTYNGKFKDRVTITADKSTSTAYMELSSLRSEDTAVYYCARSGYYGDSDWYFDVWGQGTLVTVSSGGGGSDIQMTQSPSSLSASVGDRVTITCRASKSVSTSAYSYMHWYQQKPGKAPKLLIYLASNLESGVPSRFSGSGSGTDFTLTISSLQPEDFATYYCQHSRELPYTFGQGTKLEIKRGGGGSGGGGSQVQLVQSGAEVKKPGASVKVSCKASGYTFTENIIHWVRQAPGQGLEWMGWFHPGSGSIKYNEKFKDRVTMTADTSTSTVYMELSSLRSEDTAVYYCARHGGTGRGAMDYWGQGTLVTVGGGGSDIQMTQSPSSLSASVGDRVTITCRASQDIRNYLNWYQQKPGKAPKLLIYYTSRLHSGVPSRFSGSGSGTDFTFTISSLQPEDIATYYCQQGNTLPWTFGQGTKLEIKRAAADKTHTCPPCPAPPVAGPSVFLFPPKPKDTLMISRTPEVTCVVVDVSHEDPEVKFNWYVDGVEVHNAKTKPREEQYNSTYRVVSVLTVLHQDWLNGKEYKCKVSNKGLPSSIEKTISKAKGQPREPQVCTLPPSRDELTKNQVSLSCAVKGFYPSDIAVEWESNGQPENNYKTTPPVLDSDGSFFLVSKLTVDKSRWQQGNVFSCSVMHEALHNHYTQKSLSLSPGK
heavy: QVQLVQSGAEVKKPGASVKVSCKASGYTFTENIIHWVRQAPGQGLEWMGWFHPGSGSIKYNEKFKDRVTMTADTSTSTVYMELSSLRSEDTAVYYCARHGGTGRGAMDYWGQGTLVTVSSASTKGPSVFPLAPSSKSTSGGTAALGCLVKDYFPEPVTVSWNSGALTSGVHTFPAVLQSSGLYSLSSVVTVPSSSLGTQTYICNVNHKPSNTKVDKKVEPKSCDKTHTCPPCPAPPVAGPSVFLFPPKPKDTLMISRTPEVTCVVVDVSHEDPEVKFNWYVDGVEVHNAKTKPREEQYNSTYRVVSVLTVLHQDWLNGKEYKCKVSNKGLPSSIEKTISKAKGQPREPQVYTLPPCRDELTKNQVSLWCLVKGFYPSDIAVEWESNGQPENNYKTTPPVLDSDGSFFLYSKLTVDKSRWQQGNVFSCSVMHEALHNHYTQKSLSLSPGK
light: DIQMTQSPSSLSASVGDRVTITCRASKSVSTSAYSYMHWYQQKPGKAPKLLIYLASNLESGVPSRFSGSGSGTDFTLTISSLQPEDFATYYCQHSRELPYTFGQGTKLEIKRRTVAAPSVFIFPPSDEQLKSGTASVVCLLNNFYPREAKVQWKVDNALQSGNSQESVTEQDSKDSTYSLSSTLTLSKADYEKHKVYACEVTHQGLSSPVTKSFNRGEC
notes: also called scDbCD3xFAP-Fc(hole)Δab + VHFAP-CH1-Fc(knob)Δab + VLFAP-CLκ
B2: scDb/scFv-Fc (1-2)+1, trivalent bispecific anti-FAPxanti-CD3 (bispecific antibody)
chain 1: QVQLVQSGAEVKKPGASVKVSCKASGYTFTENIIHWVRQAPGQGLEWMGWFHPGSGSIKYNEKFKDRVTMTADTSTSTVYMELSSLRSEDTAVYYCARHGGTGRGAMDYWGQGTLVTVSSGGGGSDIQMTQSPSSLSASVGDRVTITCRASQDIRNYLNWYQQKPGKAPKLLIYYTSRLHSGVPSRFSGSGSGTDFTFTISSLQPEDIATYYCQQGNTLPWTFGQGTKLEIKRGGGGSGGGGSGGGGSQVQLVQSGAEVKKPGSSVKVSCKASGGTFSGYTMNWVRQAPGQGLEWMGLINPYKGVSTYNGKFKDRVTITADKSTSTAYMELSSLRSEDTAVYYCARSGYYGDSDWYFDVWGQGTLVTVSSGGGGSDIQMTQSPSSLSASVGDRVTITCRASKSVSTSAYSYMHWYQQKPGKAPKLLIYLASNLESGVPSRFSGSGSGTDFTLTISSLQPEDFATYYCQHSRELPYTFGQGTKLEIKRAAADKTHTCPPCPAPPVAGPSVFLFPPKPKDTLMISRTPEVTCVVVDVSHEDPEVKFNWYVDGVEVHNAKTKPREEQYNSTYRVVSVLTVLHQDWLNGKEYKCKVSNKGLPSSIEKTISKAKGQPREPQVCTLPPSRDELTKNQVSLSCAVKGFYPSDIAVEWESNGQPENNYKTTPPVLDSDGSFFLVSKLTVDKSRWQQGNVFSCSVMHEALHNHYTQKSLSLSPGK
chain 2: QVQLVQSGAEVKKPGASVKVSCKASGYTFTENIIHWVRQAPGQGLEWMGWFHPGSGSIKYNEKFKDRVTMTADTSTSTVYMELSSLRSEDTAVYYCARHGGTGRGAMDYWGQGTLVTVSSGGGGSGGGGSGGGGSDIQMTQSPSSLSASVGDRVTITCRASKSVSTSAYSYMHWYQQKPGKAPKLLIYLASNLESGVPSRFSGSGSGTDFTLTISSLQPEDFATYYCQHSRELPYTFGQGTKLEIKRAAADKTHTCPPCPAPPVAGPSVFLFPPKPKDTLMISRTPEVTCVVVDVSHEDPEVKFNWYVDGVEVHNAKTKPREEQYNSTYRVVSVLTVLHQDWLNGKEYKCKVSNKGLPSSIEKTISKAKGQPREPQVYTLPPCRDELTKNQVSLWCLVKGFYPSDIAVEWESNGQPENNYKTTPPVLDSDGSFFLYSKLTVDKSRWQQGNVFSCSVMHEALHNHYTQKSLSLSPGK
notes: The FAP site is hu36; also called scDbFAPxCD3-Fc(hole)Δab + scFvFAP-Fc(knob)Δab
B3: scDb/scFv-Fc (2-1)+1, trivalent bispecific anti-FAPxanti-CD3 (bispecific antibody)
chain 1: QVQLVQSGAEVKKPGSSVKVSCKASGGTFSGYTMNWVRQAPGQGLEWMGLINPYKGVSTYNGKFKDRVTITADKSTSTAYMELSSLRSEDTAVYYCARSGYYGDSDWYFDVWGQGTLVTVSSGGGGSDIQMTQSPSSLSASVGDRVTITCRASKSVSTSAYSYMHWYQQKPGKAPKLLIYLASNLESGVPSRFSGSGSGTDFTLTISSLQPEDFATYYCQHSRELPYTFGQGTKLEIKRGGGGSGGGGSQVQLVQSGAEVKKPGASVKVSCKASGYTFTENIIHWVRQAPGQGLEWMGWFHPGSGSIKYNEKFKDRVTMTADTSTSTVYMELSSLRSEDTAVYYCARHGGTGRGAMDYWGQGTLVTVGGGGSDIQMTQSPSSLSASVGDRVTITCRASQDIRNYLNWYQQKPGKAPKLLIYYTSRLHSGVPSRFSGSGSGTDFTFTISSLQPEDIATYYCQQGNTLPWTFGQGTKLEIKRAAADKTHTCPPCPAPPVAGPSVFLFPPKPKDTLMISRTPEVTCVVVDVSHEDPEVKFNWYVDGVEVHNAKTKPREEQYNSTYRVVSVLTVLHQDWLNGKEYKCKVSNKGLPSSIEKTISKAKGQPREPQVCTLPPSRDELTKNQVSLSCAVKGFYPSDIAVEWESNGQPENNYKTTPPVLDSDGSFFLVSKLTVDKSRWQQGNVFSCSVMHEALHNHYTQKSLSLSPGK
chain 2: QVQLVQSGAEVKKPGASVKVSCKASGYTFTENIIHWVRQAPGQGLEWMGWFHPGSGSIKYNEKFKDRVTMTADTSTSTVYMELSSLRSEDTAVYYCARHGGTGRGAMDYWGQGTLVTVSSGGGGSGGGGSGGGGSDIQMTQSPSSLSASVGDRVTITCRASKSVSTSAYSYMHWYQQKPGKAPKLLIYLASNLESGVPSRFSGSGSGTDFTLTISSLQPEDFATYYCQHSRELPYTFGQGTKLEIKRAAADKTHTCPPCPAPPVAGPSVFLFPPKPKDTLMISRTPEVTCVVVDVSHEDPEVKFNWYVDGVEVHNAKTKPREEQYNSTYRVVSVLTVLHQDWLNGKEYKCKVSNKGLPSSIEKTISKAKGQPREPQVYTLPPCRDELTKNQVSLWCLVKGFYPSDIAVEWESNGQPENNYKTTPPVLDSDGSFFLYSKLTVDKSRWQQGNVFSCSVMHEALHNHYTQKSLSLSPGK
notes: also called scDbCD3xFAP-Fc(hole)Δab + scFvFAP-Fc(knob)Δab
B4: scDb/Fab-Fc (1-2)+1, trivalent bispecific anti-FAPxanti-CD3 (bispecific antibody, human IgG1, kappa)
chain: QVQLVQSGAEVKKPGASVKVSCKASGYTFTENIIHWVRQAPGQGLEWMGWFHPGSGSIKYNEKFKDRVTMTADTSTSTVYMELSSLRSEDTAVYYCARHGGTGRGAMDYWGQGTLVTVSSGGGGSDIQMTQSPSSLSASVGDRVTITCRASQDIRNYLNWYQQKPGKAPKLLIYYTSRLHSGVPSRFSGSGSGTDFTFTISSLQPEDIATYYCQQGNTLPWTFGQGTKLEIKRGGGGSGGGGSGGGGSQVQLVQSGAEVKKPGSSVKVSCKASGGTFSGYTMNWVRQAPGQGLEWMGLINPYKGVSTYNGKFKDRVTITADKSTSTAYMELSSLRSEDTAVYYCARSGYYGDSDWYFDVWGQGTLVTVSSGGGGSDIQMTQSPSSLSASVGDRVTITCRASKSVSTSAYSYMHWYQQKPGKAPKLLIYLASNLESGVPSRFSGSGSGTDFTLTISSLQPEDFATYYCQHSRELPYTFGQGTKLEIKRAAADKTHTCPPCPAPPVAGPSVFLFPPKPKDTLMISRTPEVTCVVVDVSHEDPEVKFNWYVDGVEVHNAKTKPREEQYNSTYRVVSVLTVLHQDWLNGKEYKCKVSNKGLPSSIEKTISKAKGQPREPQVCTLPPSRDELTKNQVSLSCAVKGFYPSDIAVEWESNGQPENNYKTTPPVLDSDGSFFLVSKLTVDKSRWQQGNVFSCSVMHEALHNHYTQKSLSLSPGK
heavy: QVQLVQSGAEVKKPGASVKVSCKASGYTFTENIIHWVRQAPGQGLEWMGWFHPGSGSIKYNEKFKDRVTMTADTSTSTVYMELSSLRSEDTAVYYCARHGGTGRGAMDYWGQGTLVTVSSASTKGPSVFPLAPSSKSTSGGTAALGCLVKDYFPEPVTVSWNSGALTSGVHTFPAVLQSSGLYSLSSVVTVPSSSLGTQTYICNVNHKPSNTKVDKKVEPKSCDKTHTCPPCPAPPVAGPSVFLFPPKPKDTLMISRTPEVTCVVVDVSHEDPEVKFNWYVDGVEVHNAKTKPREEQYNSTYRVVSVLTVLHQDWLNGKEYKCKVSNKGLPSSIEKTISKAKGQPREPQVYTLPPCRDELTKNQVSLWCLVKGFYPSDIAVEWESNGQPENNYKTTPPVLDSDGSFFLYSKLTVDKSRWQQGNVFSCSVMHEALHNHYTQKSLSLSPGK
light: DIQMTQSPSSLSASVGDRVTITCRASKSVSTSAYSYMHWYQQKPGKAPKLLIYLASNLESGVPSRFSGSGSGTDFTLTISSLQPEDFATYYCQHSRELPYTFGQGTKLEIKRRTVAAPSVFIFPPSDEQLKSGTASVVCLLNNFYPREAKVQWKVDNALQSGNSQESVTEQDSKDSTYSLSSTLTLSKADYEKHKVYACEVTHQGLSSPVTKSFNRGEC
notes: also called scDbFAPxCD3-Fc(hole)Δab + VHFAP-CH1-Fc(knob)Δab + VLFAP-CLκ

In this experiment the target is T1, FAP (UniProt Q12884 1-760, limits assumed).
T1 construct: whole, on cells; also called FAP on HT1080-FAP cells
The experiment is described as follows: flow cytometry, serial dilution on HT1080-FAP cells (FAP-expressing), PE anti-human Fc detection. Here is the method: Binding of trivalent, bispecific fusion proteins to FAP-expressing (HT1080-FAP) cell lines was analyzed by flow cytometry. 2×10⁵ cells/well were incubated with a serial dilution of trivalent, bispecific antibodies for 1 h at 4° C. followed by detection using a PE-conjugated anti-human Fc antibody (Jackson ImmunoResearch Laboratories Inc).
B1 showed an EC50 of 400 pM.
The value for B2 was 600 pM.
The molecule B3 showed an EC50 of 300 pM.
The value for B4 was 500 pM.
